Where two headings read alike, the source gives them in different places.
Tests used:
[1] = target: SARS-CoV-2 +E484K B.1.1.7 Spike Protein (R&D, Cat. #10824-CV) (SARS-CoV-2) (UniProt P0DTC2); assay: BLI (ForteBio), mAb on AHC sensor, spike in solution
[2] = target: SARS-CoV-2 +E484K B.1.1.7 Spike Protein (R&D, Cat. #10824-CV) (SARS-CoV-2) (UniProt P0DTC2); assay: competition ELISA: blocks biotin-ACE2 binding to coated spike
[3] = target: SARS-CoV-2 +E484K B.1.1.7 Spike Protein (R&D, Cat. #10824-CV) (SARS-CoV-2) (UniProt P0DTC2); assay: as above; remark: listed apart in the source
[4] = target: SARS-CoV-2 +E484K B.1.1.7 Spike Protein (R&D, Cat. #10824-CV) (SARS-CoV-2) (UniProt P0DTC2); assay: direct ELISA on coated spike

Substance | Kd [1] | IC50 [2] | IC50 [3] | EC50 [4]
Casirivimab (antibody) | 3.4 nM | 3.13 nM | 3.3 nM | 0.0584 nM
Imdevimab (antibody) | 0.831 nM | – | – | 0.0505 nM

— patent publication US20260250363A1
